The values that follow come from US20040172681.

This data set concerns FasA from Brevibacterium ammoniagenes (multifunctional fatty acid synthase).
FasA from Brevibacterium ammoniagenes (multifunctional fatty acid synthase), sequence (chain, as listed by the source): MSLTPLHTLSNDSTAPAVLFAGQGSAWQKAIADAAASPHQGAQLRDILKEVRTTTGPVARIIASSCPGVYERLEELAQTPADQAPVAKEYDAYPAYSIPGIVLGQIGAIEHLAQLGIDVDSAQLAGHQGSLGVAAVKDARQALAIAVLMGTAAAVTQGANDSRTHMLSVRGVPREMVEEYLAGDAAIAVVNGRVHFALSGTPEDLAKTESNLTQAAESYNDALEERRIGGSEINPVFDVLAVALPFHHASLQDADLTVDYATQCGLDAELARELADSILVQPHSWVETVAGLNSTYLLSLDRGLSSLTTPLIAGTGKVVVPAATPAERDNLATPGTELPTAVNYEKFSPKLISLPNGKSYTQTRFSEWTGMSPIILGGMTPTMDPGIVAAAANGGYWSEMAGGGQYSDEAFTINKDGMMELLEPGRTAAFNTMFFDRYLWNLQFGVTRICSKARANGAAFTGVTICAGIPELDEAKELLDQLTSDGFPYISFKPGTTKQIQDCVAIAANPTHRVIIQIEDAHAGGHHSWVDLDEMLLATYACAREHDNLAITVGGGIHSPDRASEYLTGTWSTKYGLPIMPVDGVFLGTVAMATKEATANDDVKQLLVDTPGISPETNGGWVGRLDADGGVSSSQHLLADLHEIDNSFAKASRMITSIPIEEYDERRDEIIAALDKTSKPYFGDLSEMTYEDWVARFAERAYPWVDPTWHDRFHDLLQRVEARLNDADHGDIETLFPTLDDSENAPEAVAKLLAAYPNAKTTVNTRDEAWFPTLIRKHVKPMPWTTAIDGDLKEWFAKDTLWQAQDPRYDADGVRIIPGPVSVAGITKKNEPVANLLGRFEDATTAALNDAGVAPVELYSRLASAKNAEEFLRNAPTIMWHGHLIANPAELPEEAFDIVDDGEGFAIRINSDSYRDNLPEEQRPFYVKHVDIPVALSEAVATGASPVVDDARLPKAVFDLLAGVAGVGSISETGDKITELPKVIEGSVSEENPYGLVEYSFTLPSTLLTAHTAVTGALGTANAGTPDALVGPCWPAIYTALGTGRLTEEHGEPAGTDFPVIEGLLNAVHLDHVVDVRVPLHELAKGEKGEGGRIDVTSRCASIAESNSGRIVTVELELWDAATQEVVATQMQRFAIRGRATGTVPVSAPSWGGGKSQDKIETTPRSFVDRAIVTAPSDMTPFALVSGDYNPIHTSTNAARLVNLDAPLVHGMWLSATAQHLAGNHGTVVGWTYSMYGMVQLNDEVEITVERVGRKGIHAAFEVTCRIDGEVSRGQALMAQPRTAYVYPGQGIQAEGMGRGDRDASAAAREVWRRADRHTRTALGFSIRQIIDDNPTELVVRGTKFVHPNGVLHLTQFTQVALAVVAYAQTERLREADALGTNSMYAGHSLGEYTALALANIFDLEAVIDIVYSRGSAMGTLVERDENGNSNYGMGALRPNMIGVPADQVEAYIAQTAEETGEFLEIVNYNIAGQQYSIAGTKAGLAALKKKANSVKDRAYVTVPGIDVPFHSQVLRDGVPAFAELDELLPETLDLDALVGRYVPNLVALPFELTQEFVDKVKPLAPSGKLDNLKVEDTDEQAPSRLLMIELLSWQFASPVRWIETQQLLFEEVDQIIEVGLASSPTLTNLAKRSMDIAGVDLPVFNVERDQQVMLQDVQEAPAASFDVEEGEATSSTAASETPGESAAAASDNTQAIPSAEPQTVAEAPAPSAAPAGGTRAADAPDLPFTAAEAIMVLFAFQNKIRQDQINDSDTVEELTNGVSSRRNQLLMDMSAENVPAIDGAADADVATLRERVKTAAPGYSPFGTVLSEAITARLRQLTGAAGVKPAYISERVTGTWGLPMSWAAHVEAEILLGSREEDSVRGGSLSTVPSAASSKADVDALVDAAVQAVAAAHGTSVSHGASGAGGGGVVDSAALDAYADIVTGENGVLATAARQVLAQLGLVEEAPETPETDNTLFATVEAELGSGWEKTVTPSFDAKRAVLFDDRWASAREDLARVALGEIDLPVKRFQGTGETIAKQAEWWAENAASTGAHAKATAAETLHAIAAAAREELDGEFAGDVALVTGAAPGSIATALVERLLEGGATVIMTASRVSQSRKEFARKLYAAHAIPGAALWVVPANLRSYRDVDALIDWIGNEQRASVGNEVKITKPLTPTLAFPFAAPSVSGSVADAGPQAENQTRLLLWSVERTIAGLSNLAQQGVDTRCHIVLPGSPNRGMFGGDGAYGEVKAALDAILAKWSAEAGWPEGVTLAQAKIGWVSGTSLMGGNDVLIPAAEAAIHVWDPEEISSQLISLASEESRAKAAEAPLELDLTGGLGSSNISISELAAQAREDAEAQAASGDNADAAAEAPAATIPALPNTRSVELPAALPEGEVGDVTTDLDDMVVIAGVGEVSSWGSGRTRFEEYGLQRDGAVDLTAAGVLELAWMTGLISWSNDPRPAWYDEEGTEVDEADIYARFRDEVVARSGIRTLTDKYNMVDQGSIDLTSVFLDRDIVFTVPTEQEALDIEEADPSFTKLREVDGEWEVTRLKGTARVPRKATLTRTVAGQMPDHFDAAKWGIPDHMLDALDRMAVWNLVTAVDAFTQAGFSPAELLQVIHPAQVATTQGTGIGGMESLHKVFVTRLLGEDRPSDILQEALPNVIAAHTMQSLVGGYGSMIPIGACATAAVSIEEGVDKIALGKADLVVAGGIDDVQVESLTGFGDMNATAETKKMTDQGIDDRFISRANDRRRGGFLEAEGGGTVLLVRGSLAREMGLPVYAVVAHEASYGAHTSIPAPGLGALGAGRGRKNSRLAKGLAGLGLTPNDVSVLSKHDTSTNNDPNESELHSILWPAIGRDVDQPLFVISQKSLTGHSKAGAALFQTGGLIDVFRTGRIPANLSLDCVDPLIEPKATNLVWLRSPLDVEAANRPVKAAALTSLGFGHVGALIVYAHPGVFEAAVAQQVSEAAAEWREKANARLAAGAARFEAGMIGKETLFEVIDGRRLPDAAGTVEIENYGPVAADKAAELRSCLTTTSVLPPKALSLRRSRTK

B1: phosphopantetheine:protein transferase (PPT1) enzyme from B. ammoniagenes, expressed in E. coli as a lacZ fusion protein (enzyme, part only; not given: N-terminal lacZ fusion residues)
chain, part: MLDNREAMTVGVDLVHIPGFAEQLSRPGSTFEQVFSPLERRHAQTRRDAAADATNSSLAGSRTEHLAGRWAAKEAFIKAWSQAIYGKPPVIEPDLVNFAEIEVLPDRWGRVALQLKGEVAAKLQESIDVELALSISHDGDYATAQCLLRYQR
As for B1, the “fasA activity (radiochemical assay at 37 C for 15 minutes on partially purified E. coli extracts)” value was “only when the fasA cosmid (FA) and the pSU19/ppt1 (P) construct were both present was there any measurable fasA activity”.
